{"source": "paper PMC3205447", "key": {"[1]": {"target": "TRAF2 (UniProt P39429)", "sequence (P39429 whole entry, looked up)": "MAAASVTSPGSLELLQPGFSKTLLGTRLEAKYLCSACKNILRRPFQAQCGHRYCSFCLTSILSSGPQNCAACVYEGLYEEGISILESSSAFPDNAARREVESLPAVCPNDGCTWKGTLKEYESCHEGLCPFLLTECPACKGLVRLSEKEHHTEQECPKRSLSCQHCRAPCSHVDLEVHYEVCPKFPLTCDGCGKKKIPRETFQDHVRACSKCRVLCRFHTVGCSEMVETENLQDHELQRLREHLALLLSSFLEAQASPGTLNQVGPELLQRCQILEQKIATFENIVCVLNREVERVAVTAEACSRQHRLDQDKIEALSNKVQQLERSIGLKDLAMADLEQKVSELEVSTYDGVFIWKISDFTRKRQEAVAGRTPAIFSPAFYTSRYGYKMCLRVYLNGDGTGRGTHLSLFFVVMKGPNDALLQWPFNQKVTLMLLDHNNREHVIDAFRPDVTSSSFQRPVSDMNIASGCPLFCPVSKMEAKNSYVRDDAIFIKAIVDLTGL", "assay": "anti-TRAF2 IP, TAX1BP1 immunoblot", "details": "reference: wild type; sites S593,S624"}, "[2]": {"target": "TRAF6 (UniProt P70196)", "sequence (P70196 whole entry, looked up)": "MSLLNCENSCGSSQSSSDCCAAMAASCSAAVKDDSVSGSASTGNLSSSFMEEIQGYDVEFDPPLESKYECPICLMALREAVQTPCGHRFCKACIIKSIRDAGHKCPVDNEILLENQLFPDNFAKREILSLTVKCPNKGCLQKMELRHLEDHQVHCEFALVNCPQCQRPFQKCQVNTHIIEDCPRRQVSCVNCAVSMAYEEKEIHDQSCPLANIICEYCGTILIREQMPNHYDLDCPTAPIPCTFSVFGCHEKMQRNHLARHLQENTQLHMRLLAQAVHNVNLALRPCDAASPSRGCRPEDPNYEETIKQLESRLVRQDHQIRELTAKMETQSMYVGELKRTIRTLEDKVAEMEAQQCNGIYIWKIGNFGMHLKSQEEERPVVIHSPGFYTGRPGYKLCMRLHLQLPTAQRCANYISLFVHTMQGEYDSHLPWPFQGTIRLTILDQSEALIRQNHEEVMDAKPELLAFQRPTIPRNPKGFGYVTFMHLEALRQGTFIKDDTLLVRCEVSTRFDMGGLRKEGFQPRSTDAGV", "assay": "anti-TRAF6 IP, TAX1BP1 immunoblot", "details": "reference: wild type; sites S593,S624"}}, "data": [{"substance": "TAX1BP1 (Flag-tagged, amino acids 1–747) 1-747 (from UniProt Q86VP1-2) S593A, S624A", "values": [{"measurement": "binding against the reference", "setting": "[1]", "value": "lost"}, {"measurement": "binding against the reference", "setting": "[2]", "value": "lost"}]}]}
